Experiment: soluble on expression in E. coli; label from the status in PepcDB or PDB records

Row | Sequence | soluble on expression in E. coli
1 | SAAAALRDQLTALLSSMFSQGLVDEQFQQLQMLQDEGGTPGFVSEVVTLFCDDADRIINEIATLLEQPVVNFDKVDAYVHQLKGSSASVGAQKVKFTCMQFRQFCQDKSRDGCLMALAVVRNDFYDLRNKFQTMLQLEQQIQAYDPKQQ | soluble
2 | TEQTNVLVLCAGGGTSGLLANALNKAAEEYHVPVKAAAGGYGAHMDIMKEYQLIILAPQVASNYEDIKQDTDRLGIKLAKTQGAEYIKLTRDGQAALDFVQQQFEN | not soluble
3 | MNDKTTRGRASKVDLLPPNIKSTLTMMLRDKQYSQAEILEEINNIIADSGLDESMQLSKTGLNRFASKMERFGKKIREAREVAEVWTKQLVEAPQSDIGKLLMEAVKTMAFDLTLNADEAVANDPKFLNQLALIANRIEQAQSISEERERKVRKEVAQQAADTAEKVISQAGLSADTVAQIKQQILGIA | not soluble
4 | MSLSTLKRDHIKKNLRDTEYDVVIVGGGITGAGIALDASNRGMKVALVEMQDFAQGTSSRSTKLVHGGLRYLKQLQVGVVAETGKERAIVYENGPHVTTPEWMLLPMHKGGTFGKFSTSIGLAMYDRLAGVKKSERKKMLSKQETLNKEPLVKRDGLKGGGYYVEYRTDDARLTIEVMKKAAENGAEILNYTKSEHFTYDSNKKVNGIEVLDMIDGETYAIKAKKVINASGPWVDEVRSGDYARNNKQLRLTKGVHVVIDQSKFPLGQAVYFDTEKDGRMIFAIPREGKAYVGTTDTFYDNEKATPLTTQEDRDYLINAINYMFPTVNVKDEDIESTWAGIRPLILEKGKDPSEISRKDEVWEGESGLLTIAGGKLTGYRHMALEIVDLLAKRLKQEYGLKFESCATKNLKISGGDVGGSKNFEHFVEQKVDAAKGFGIDEDVARRLASKYGSNVDQLFNIAQTAPYHDSKLPLEIYVELVYSIQQEMVYKPTDFLVRRSGKLYFNIQDVLDYKNAVIDVMADMLNYSETQKEAYTEEVEVAIDEARTGNDQPATKALEHHHHHH | soluble
5 | MSLIPDVSQALAWLEKHPQALKGIQRGLERETLRVNADGTLATTGHPEALGSALTHKWITTDFAEALLEFITPVDGDIQHMLTFMRDLHRYTARKLGDERMWPLSMPCYIAEGQDIELAQYGTSNTGRFKTLYREGLKNRYGALMQTISGVHYNFSLPMAFWQAKCGVTEGGSGKRKISAGYFRLIRNYYRFGWVIPYLFGASPAICSSFLQGKPTTLPFEKTDCGMYYLPYATSLRLSDLGYTNKSQSNLGITFNDLHEYVAGLKRAIKTPSEEYARIGVEKDGKRLQINSNVLQIENELYAPIRPKRVTRSGESPSDALLRGGIEYIEVRSLDINPFSPIGVDEQQVRFLDLFMVWCVLADAPEMSSDELLCTRTNWNRVILERRKPGLTLGIGCETAQFPLPKVGKDLFRDLKRVAQTLDSIHGGEEYQKVCDELVACFDNPELTFSARILRSMIDEGIGGTGKAFGEAYRNLLREEPLEILQEEEFIAERDASVRRQQEIEAADTEPFAAWLAKHAEGGSHHHHHH | soluble
6 | MNLIFPLFFFALLVGSNAQFQQFCNYCGFIEVPKTWPVAQDSLRSACETLGMATTACKGIINSADLNSSYGKMYPYII | not soluble
7 | KERPEISLPSDFEHTIHVGFDAVTGEFTGMPEQWARLLQTSNITKSEQKKNPQAVLDVLEFYNSKKTSNSQKYMSFTDKS | soluble
8 | EIQMTQTTSSLSASLGDRVTISCRASQDISNFLNWYQQKPDGTVKLLIYYTSTLHSGVPSRFSGSGSGTDYSLTISNLEQEDIATYFCQQGKTLPPTFGGGTKLEIKRADAAPTVSIFPPSSEQLTSGGASVVCFLNNFYPKEINVKWKIDGSERQNGVLDSWTEQDSKDSTYSMSSTLTLTKDEYERHNSYTCEATHKTSTSPIVKSFNRNEC | soluble
9 | MIVTTTSGIQGKEIIEYIDIVNGEAIMGANIVRDLFASVRDVVGGRAGSYESKLKEARDIAMDEMKELAKQKGANAIVGVDVDYEVVRDGMLMVAVSGTAVRI | soluble
10 | MPQDPRHPEHQYLDLVKHILENGARRMDRTGTGTLSVFGATMRFSLEDNTFPLLTTRRVFYRGVVEELLFFLRGETDSKVLEKKGVRIWEKNGAKQFLQSVGIDREEGDLGPIYGFQWRHFGARYETSASSYEGKGVDQIASAIAAIRANPASRRIVVSAWNPTDLGSMALPPCHVLFQFNVTDGKLSCAMYQRSGDMGLGVPFNIASYSLLTILVAHLTGLQPGEFVHFLGDAHVYLDHVDSLRQQIQRPPRAFPKLFVSPKGPRTEPEHFQYEDFELVGYDPHPAIKMNMSA | soluble
11 | MDTIWELDFYSRPLVDENNKKIWELLVCDRQQQFQFSKTCAGAEANARWLAAALEEAMDQWRQQLGLAEGVQPQRVRFFRRAMSSIITRGGEAAGLVMVPSRRTFALYDWLRDRATNFYPTLPNYQADLATPPQLPPPAPQPLPPALQGDRWQLSGLPLGEIKTAAEWELPFGEVPPLPFLTLNDDTLLPGLIIYSQRALPLAGWLSGLEPASLSFEETPQPLLILETGASDRWILIRGRNPQIQKELAAFKDACTQSQGLHFIAVKEQPTQETLQGFWLLQQTPELLEHHHHHH | soluble
12 | MGSDKIHHHHHHMLSLGLADSRAISKANSGSERHVREVIKRLSLRYKLYYLPTTHAFLDAISEDQLKEIKKFAKVPSFFEYLLDKKLGKVSLLRELFTFSPLAKELVREYEREIGILDFIYVPHTYRIQLMPSILFSKLSRGKYGMLLMTDPHNSLLEKESFFKCVNVWSKIWFSRKSAIEFCSFQRLQNIAFLLKAIKTKPSFISVMNKCALNYTGLPKYFNTKVLSPPHAFNNLALKYRNFDKEDYLVFLGRINTAKGANEALEVGKHVKLKMIGYKEQEFIVKQARSFGIEVIENVSEEEKFEILSKARALVLPSHQESFSVTILEALAVGTPVITYDLPSLTSTYNFKPVFFVKEFDVKGLVNTALEVYNMKKIEEMFNDERLEEFIKMHSSWDNVSNAVDKLITEAIQE | not soluble
13 | MGHHHHHHSHMATSRYEPVAEIGVGAYGTVYKARDPHSGHFVALKSVRVPNGGGGGGGLPISTVREVALLRRLEAFEHPNVVRLMDVCATSRTDREIKVTLVFEHVDQDLRTYLDKAPPPGLPAETIKDLMRQFLRGLDFLHANCIVHRDLKPENILVTSGGTVKLADFGLARIYSYQMALTPVVVTLWYRAPEVLLQSTYATPVDMWSVGCIFAEMFRRKPLFCGNSEADQLGKIFDLIGLPPEDDWPRDVSLPRGAFPPRGPRPVQSVVPEMEESGAQLLLEMLTFNPHKRISAFRALQHSYLHKDEGNPE | not soluble
14 | SNAMALGFGMKMELQQFLDALASSPEKIEFETTMAVIEDNYDFTPAAFTNGNTQNDANENNGSCKIFAFGLLNALDKEATLACFGRFYREDVLLHPENNDHQNIRNFMVTGWEGIQFETSALTAK | soluble
15 | MGSDKIHHHHHHMLAGKTASEIFDNIRHLVQSGGLQPGEVLPPVRELASQLAVNRNTVAAAYKRLVTSGLAVSQGRNGTAIKARDTLPALEGGDPTTPLNDISSGNPDPARLPDLPRYLGQIARTPRLYGDAPIEPRLGQWAEAWFAREIAVPFAVNLASGAIDALERLLCALLLPGDGVVVEDPCFLSSINMVRYAGFTPCPVAVDAEGMDPDGLEEALRNGARAVILTPRAHNPTGCSLTETRAHALREVLARYPQVLAIVDDHFALLSATPWHSPLPASTQRWALVRSMSKTLGPDLRLAFIASDAATSAALRLRLNAGSQWVSHLLQDLTLACLTDEAFIASMTETRRHYRQQNEKLAAALARHGFSHATPGDGLNFWLPLPAASQPYALRLARAGWLVREGEVFGIRTPSHGLRLSLGRLSDAEISRLAADIAQALDAP | not soluble
16 | MGSDKIHHHHHHMKLSCSQSELNNALQLVSRAVSNRPTHPVLANVLLAADEVTGKLRLTGFDLSLGIQTSISASIDSSGAITLPAKLFGEIVSKLSNDSPLVLTSDETSQQVELTSKSGTYQVRGMLSDDFPELPLVENGTSFKLNPLLLSNAIKSTLFASSTDDAKQLLTGVNLTFDGYGIESAATDGHRLAVLNLNNILSDSKEIDSSIKFEKFSITLPSKSLREVEKFLSTCDISHPINFFIDKGQVVFISVEDIITIRALEGSYPNYSQLLPDTFENELEFDRKEFISSLERIAVLADQHNNVIKVTTDGSANLIKISTDAQDIGTGYESLPVSYKGDSFQIAFNVRYLLDGLKVIDSNLIKLSCNSPTTPAIFSPINSDVNFTYLVMPIQIRN | not soluble
17 | MKTIRLTTAQALVKFLNQQYVEFDGHIQKFVKGIFTIFGHGNVLGLGQALEEDPGELEVYQGRNEQGMAHAAIAFAKQKHRRQIMACTSSVGPGAANMVTAAATASANHIPVLLLPGDTFATRQPDPVLQQIEHWHDLTVSTNDAFRAVSKYWDRISRPEQLMSAMIQAMRVLTDPANTGAVTIALPQDVQGEAYDFPESFFQKRIHRIERRVPAKAAIHEAVELIRRKKKPIIICGGGVRYSEAAEELKQFAEKFHIPYGETQAGKSAVESAHPYNLGGIGVTGNLAANIIAKEADLVIGIGTRYTDFTTGSKQLFQHPEVEFLTINVSVFDACKLDAVRVVADAKLALLALTEELEKIGYRSGYTNEIDIAKKAWEEELNRLHHVRYRQSGFQPEVAGHLDEVLTEYSEFFDSSLTQTEVIGAINEWIDDDAIIIGAAGSLPGDLQRMWVARRPNTYHMEYGYSCMGYEIAGALGVKMAEPDKEVYAMVGDGSYLMLHSELVTSIQEKKKINVLLFDNGGFGCINNLQMGHGMGSFATEFRYRNEETGRLDGSLIPIDFAQSAAGYGVKTYKVHTLEQLKEALEDAKQQSVSTLIDIKVLPKTMTHDYESWWHVGVAEVSRNPKIAEAYKRKEQQLQRARKY | soluble
18 | MAKEWGYASHNGPDHWHELFPNAKGENQSPIELHTKDIRHDPSLQPWSVSYDGGSAKTILNNGKTCRVVFDDTYDRSMLRGGPLPGPYRLRQFHLHWGSSDDHGSEHTVDGVKYAAELHLVHWNPKYNTFKEALKQRDGIAVIGIFLKIGHENGEFQIFLDALDKIKTKGKEAPFTKFDPSSLFPASRDYWTYQGSFTTPPCEECIVWLLLKEPMTVSSDQMAKLRSLLSSAENEPPVPLVSNWRPPQPINNRVVRASFKHHHHHH | soluble
19 | MKVKEAMNPEIITVSPETRPLEAFEKMYKHGVRRLFVLEDDGKPVGVVSYTDLIGVLGTIKPDSEHPERDLKVRDIMVDEVITISADDNIEDAANLMLRADISGLLVMDDERPVGVITKTDICRLVAAEILVPS | not soluble
20 | MMKAIPVEQAVGTVLCHDLTRIVPGEHKGRAFRKGHIVTEADIPLLLSIGKEHLYVLNLEAHQLHEDEAALRIATAAAGPGISLSEVSEGRINFMASPGLLCVDVEALNAINAIDEVALATMHSGQFIAARRAVAGTRVVPLVIDESKIRQVERICAASYPVVQVKPLRSHSIGVVTTGSEIFHGRIKDKFGPVMRDKFAALGSSVMGQRLVGDAPEATRDAILSFIGEGADMVVVTGGMSVDPDDQTPASIRATGAEVVTYGSPTFPGVMFMLAYLNDIPVLGLPGCVMYYRASIFDLVVPRLLAGERLARRDITSLGHGGFCAGCETCHHPVCPFGKLEHHHHHH | not soluble
21 | MSLQKFSDEQRSQIETIIKEYLVSHPEVLEEASEELGKRQAAAQAEKHQQAIKDNADIIYNSPRGVTVGNKNGDVTMVEFFDYNCGYCKRAMTDMMELMKDDPNLKVVLKEFPVLGPPSVEAAQVAIAVRMQDPTGKKYLDFHQKLLGGRGQADKARALAAAKDAGLDPAKIEKDMNSPEVRATIEESFKLAESMGMNGTPSYVIGKQVVVGAVGLDTLRQKINTARCGKDKCEGHHHHHH | soluble
22 | MNTNMVASELGVSAKTVQRWVKQLNLPAERNELGHYSFTAEDVKVLKSVQKQISEGTAIQDIHLPKSAKKRTGFLVQKTSSDTERRIEQLEQKLDTLLQQRQDESELMARMSELERQLKQKADEGVSYQLLQHRREIDDILADLQSLTSQMKEFTAHSIPETAAASEKTKTRKKPLLSLFKFQTLEHHHHHH | not soluble
